The values below are quoted from earlier work in paper PMC9539805.

Series [1] concerns the target spike protein RBD (SARS-CoV-2) (UniProt P0DTC2).
Series [2] concerns the target spike protein (SARS-CoV-2) (UniProt P0DTC2).

What is called Kd is a measure of binding affinity in units of concentration. Take CV-N (from UniProt P81180): the Kd was 260 µM in series [1] and 18.6 µM in series [2].
